{
  "source": "the nanobody polyreactivity screen of Harvey et al. (2022)",
  "assay": "yeast display, Sf9 membrane polyspecificity reagent, FACS + sequencing; frameworks hold sequencing errors",
  "procedure,_shortened": "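Galactose-induced (36–48 hours) yeast carrying a synthetic nanobody display library were exposed to 10% biotinylated, detergent-solubilized Sf9 membrane reagent at 4 °C for 1 hour. FACS followed streptavidin microbead enrichment, using low and high (top ~1%) gates for expression (anti-HA) and reagent binding (streptavidin). Colony PCR, MiSeq 2 × 250 sequencing and CDR-length filtering followed. Labels for polyreactivity reflect the gate of origin.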",
  "data": [
    {"sequence": "QVQLVESGGGLVQAGGSLRLSCAASGSTFLTYAMGWYRQAPGKERELVASITSTGRTYADSVKGRFTISRDNAKNTVYLQMNSLKPEDTAVYYCNADVTAFRRSFLRKYYSYDSWGQGTQVTVSS", "values": [
      {"measurement": "polyreactivity (PSR sort gate)", "value": "low polyreactivity"}
    ]},
    {"sequence": "QVQLVESGGGLVQAGGSLRLSCAASGSTFLVNAKGWYRQAPGKEWEFVAAITGNAGSTYYADSVKGRFTISRDNEKYTVYLQMNSLKPEDTAVYYCAAALPGYDGDYWGQGTQVTVSS", "values": [
      {"measurement": "polyreactivity (PSR sort gate)", "value": "low polyreactivity"}
    ]},
    {"sequence": "QVQLVESGGGLVQAGGSLRLSCAASGSTFLVYALGWYRQAHGKEREFVAAISWSGGSTFYADSVKGRFTISRDNAKNTVYLQMNSLKPEDTAVYYCAARQAGYSGRKLYYWGQGTQVTVSS", "values": [
      {"measurement": "polyreactivity (PSR sort gate)", "value": "low polyreactivity"}
    ]},
    {"sequence": "QVQLVESGGGLVQAGGSLRLSCAASGSTFLVYARGWYRQAPGKERELVADITSRGGSTYYADSVKGRFTISRDNAKNTVYLQMNSLKPEDTAVYYCAALKRVVLFDYWGQGSQVTVSS", "values": [
      {"measurement": "polyreactivity (PSR sort gate)", "value": "low polyreactivity"}
    ]},
    {"sequence": "QVQLVESGGGLVQAGGSLRLSCAASGSTFLYNAMGWYRQAPGKERELVATISSGGGSTNYADSVKGRFTISRDNAKNTVYLQMNSLKPEDTAVYYCAVEGYDSYKDDYWGQGTQVTVSS", "values": [
      {"measurement": "polyreactivity (PSR sort gate)", "value": "low polyreactivity"}
    ]},
    {"sequence": "QVQLVESGGGLVQAGGSLRLSCAASGSTFLYNAMRWYRQAPGKEREFVAAISGSGGTTYYADSVKGRFTISRDNAKNTFYLQMNSLKPEDTAVYYCAVSQSWYWYYASDYWGQGTQVTVSS", "values": [
      {"measurement": "polyreactivity (PSR sort gate)", "value": "low polyreactivity"}
    ]},
    {"sequence": "QVQLVESGGGLVQAGGSLRLSCAASGSTFLYYAMGWYRQAPGKERELVAAISWSGGSTYYADSVKGRFTISRDNAKNTVYLQMKSLKPEDTAVYYCAASSPWEQSNDQFYYWGQGTQVTVSS", "values": [
      {"measurement": "polyreactivity (PSR sort gate)", "value": "low polyreactivity"}
    ]},
    {"sequence": "QVQLVESGGGLVQAGGSLRLSCAASGSTFLYYAMGWYRQAPGKERELVATITDGGSTNYADSVKGRFTISRDNAKNTVYLQMNSLKPEDTAVYYCATDSYHYSYGYASLPEYDYWGQGTQVTVSS", "values": [
      {"measurement": "polyreactivity (PSR sort gate)", "value": "low polyreactivity"}
    ]},
    {"sequence": "QVQLVESGGGLVQAGGSLRLSCAASGSTFLYYAMGWYRQAPGKERELVAVISWSGVSTYYADSVKGRFTISRDNAKNTVYLQMNSLKPEVTAVYYCNTGNHYIRTYGYWGQGTQVTVSS", "values": [
      {"measurement": "polyreactivity (PSR sort gate)", "value": "low polyreactivity"}
    ]},
    {"sequence": "QVQLVESGGGLVQAGGSLRLSCAASGSTFNEYVMGWYRHAPGKERELVAAITGGGGRTYYADSVKGRFTISRDNAKNTVYLQMNSLKPEDTAVYYCAKRYLFVTYWGFFRYDYWGQGTQVTVSS", "values": [
      {"measurement": "polyreactivity (PSR sort gate)", "value": "low polyreactivity"}
    ]},
    {"sequence": "QVQLVESGGGLVQAGGSLRLSCAASGSTFNEYVMGWYRQAPGKERELVAAITGGGGRTYYADSVKGRFTISRDNAKITVYLQMNSQKPEDTAFYDCAKRYLYGTYWGFFRYDYWGQGTQVTVSS", "values": [
      {"measurement": "polyreactivity (PSR sort gate)", "value": "low polyreactivity"}
    ]},
    {"sequence": "QVQLVESGGGLVQAGGSLRLSCAASGSTFNFYAMGWYRQAPGKEREFVAAITSSGDSTYYADSVKGRFTISRDHAKTTVYLQMNSLKPEDTAVYYCAARLRWRYSYDYWGQGTQVTVSS", "values": [
      {"measurement": "polyreactivity (PSR sort gate)", "value": "high polyreactivity"}
    ]},
    {"sequence": "QVQLVESGGGLVQAGGSLRLSCAASGSTFNGNAMGWYRQAPGKERELVARISFDGTSTYYADSVKGRFTISRDNAKNTVYLQMNSLKPEDTAVDYCNVLFPRDHGFPGYGYWGQGTQVTVSS", "values": [
      {"measurement": "polyreactivity (PSR sort gate)", "value": "low polyreactivity"}
    ]},
    {"sequence": "QVQLVESGGGLVQAGGSLRLSCAASGSTFNGYAIGWYRQAPGKERELVAAITWSGDSTYYADSVKGRFTISRDNAKNTVYLQMNSLKPEDTAVYYCAADDVKWDYDYWGQGTQVTVSS", "values": [
      {"measurement": "polyreactivity (PSR sort gate)", "value": "low polyreactivity"}
    ]},
    {"sequence": "QVQLVESGGGLVQAGGSLRLSCAASGSTFNGYAMGWYRQAPGKERELVAAINWTGDSTYYADSVKGRFTISRDNAKNTVYLQMNSLKPEDTAVYYCAAIRRQKGLWDYYYWGQGTQVTVSS", "values": [
      {"measurement": "polyreactivity (PSR sort gate)", "value": "low polyreactivity"}
    ]},
    {"sequence": "QVQLVESGGGLVQAGGSLRLSCAASGSTFNGYTMGWYRQAPGKERELVAAISKSGGRTYYADSVKGRFTISRDNAKNTVYLQMNSLKPEDTAVYYCAAHFRALGIYYTYDYWGQGTQVTVSS", "values": [
      {"measurement": "polyreactivity (PSR sort gate)", "value": "high polyreactivity"}
    ]},
    {"sequence": "QVQLVESGGGLVQAGGSLRLSCAASGSTFNGYTMGWYRQAPGKERELVAAITWSGGRTYYADSVKGRFTISRDNAKNTVYLQMNSLKPEDTAVYYCAAKLRSRYDYWGQGTQVTVSS", "values": [
      {"measurement": "polyreactivity (PSR sort gate)", "value": "high polyreactivity"}
    ]}
  ]
}
